{
  "source": "paper PMC4938498",
  "about": "“Molecular, Biochemical, and Dietary Regulation Features of α-Amylase in a Carnivorous Crustacean, the Spiny Lobster Panulirus argus” (PLoS ONE, 2016)",
  "proteins": {"B1": {"name": "lobster α-amylase (PaAmy) (Panulirus argus) (protein)", "chain": "QWDPHVTNGQAIVHLFEWRWSDIASECENFLGPRGYGGVQVSPPNENVVVYQDEKSRPWWERYQPVSYKIATRSGDEASFKDMVNRCNNAGVRIYVDAVINHMSGWWPTGTAATGGSTFDAGAESYPAVPYSAFDFNDANCHTASGTIEDYGDAEQVRNCKLVGLNDLNQGTDYVRGKIRDYLNTLTSWGVAGFRVDATKHMWPGDLKAIFDSLDDLSPHYFDAGSRPFIFQEVIDLGGEPITSSQYVGNGRVTEFKYGKSLGESFNGNNPLKWFSTFGESWGMVDRGNAVVFIDNHDNQRTGGDMILTFRSSKWYKMANAYMLAWPYGFPRVMSSFYWDQWWENGHDKNDWTGPPHDGSYNIVGPTFNPDDSCGNGWICEHRWRQIYNMVQFRNVAHGTDMNDWWDNGSNQISFCRGDRGFIAINNDPWDMKESRQTCLSSGTYCDVISGSKIQGSCTGKTVTVNADGFAYIEILNSEEDGVLAIHRDSKL", "notes": "native, purified from digestive gland pool; mature enzyme after 21-residue signal peptide (cleavage A21/Q22 predicted); precursor 513 residues; N-glycosylation N429 predicted"}},
  "substrate": "O=[N+]([O-])c1ccc(O[C@H]2O[C@H](CO)[C@@H](O[C@H]3O[C@H](CO)[C@@H](O[C@H]4O[C@H](CO)[C@@H](O)[C@H](O)[C@H]4O)[C@H](O)[C@H]3O)[C@H](O)[C@H]2O)c(Cl)c1",
  "test": "purified protein",
  "format": "biochemical, Panulirus argus",
  "conditions": "50 mM MES pH 5.5, 0.3 M NaCl, 25 mM CaCl2, 37°C",
  "data": [
    {"protein": "B1", "values": [
      {"measurement": "Km", "result": "360 ± 52", "unit": "µM"},
      {"measurement": "kcat", "result": "28.42 ± 1.203", "unit": "s⁻¹"}
    ]}
  ]
}
